Km, kcat and kcat/Km data for one substance are collected here from article PMC8383266 (Biochemistry, 2021).

In data set [1] the test system is O=C(Cc1cccs1)N[C@@H]1C(=O)N2C(C(=O)O)=C(/C=C/c3ccc([N+](=O)[O-])cc3[N+](=O)[O-])CS[C@H]12. As to the kind of experiment: purified protein. To be noted: pH 6.4; 25.0 °C.
The subject of data set [2] is CC1(C)S[C@@H]2[C@H](NC(=O)[C@H](N)c3ccccc3)C(=O)N2[C@H]1C(=O)O. Nature of the data set: purified protein. To be noted: pH 6.4; 25.0 °C.

For (Mycobacterium tuberculosis H37Rv), in data set [1], the Km is 560 µM, the kcat was 220 s⁻¹ and the kcat/Km is 390000 M⁻¹ s⁻¹. Moreover, in data set [2], the kcat turned out to be 2.1 s⁻¹ and the kcat/Km came out at 17000 M⁻¹ s⁻¹.
